B1: wild type FtsZ (Bacillus subtilis) [B. subtilis] / itself (parent)
chain: MLEFETNIDGLASIKVIGVGGGGNNAVNRMIENEVQGVEYIAVNTDAQALNLSKAEVKMQIGAKLTRGLGAGANPEVGKKAAEESKEQIEEALKGADMVFVTAGMGGGTGTGAAPVIAQIAKDLGALTVGVVTRPFTFEGRKRQLQAAGGISAMKEAVDTLIVIPNDRILEIVDKNTPMLEAFREADNVLRQGVQGISDLIATPGLINLDFADVKTIMSNKGSALMGIGIATGENRAAEAAKKAISSPLLEAAIDGAQGVLMNITGGTNLSLYEVQEAADIVASASDQDVNMIFGSVINENLKDEIVVTVIATGFIEQEKDVTKPQRPSLNQSIKTHNQSVPKREPKREEPQQQNTVSRHTSQPADDTLDIPTFLRNRNKRG

Variants of: B1
Assay: sedimentation assay (ultracentrifugation)
Conditions: with itself, 10 µM FtsZ, 50 mM Hepes/NaOH, 50 mM KCl, 10 mM MgCl2, pH 7.5, 30°C, 5 min, read off a plot

| response (% FtsZ in pellet) (1 mM GDP (control)) | response (% FtsZ in pellet) (1 mM GTP) | Variant |
| --- | --- | --- |
| 28 | 25 | chain 1 A285T |
| 16 | 51 | chain 1 S219L |
| 18 | 29 | chain 1 L302P Q353R |
